Source: PMC3296131

Target: CNGB3N-EGFP-F (striped bass (Morone saxatilis)) (UniProt Q3I0N1)
Test: FRET or BRET

E FRET (FRET efficiency), mean: 0.3
Substance: CNG-modulin-HaloTag-TMR (from UniProt H8PG32 1-301) (natural protein)
